Data: patent publication US20030129688A1 (published 2003)
Ends that are not written are not given here.

What was measured:
[1] = molecular target: T1, ErbB-4 receptor-Ig fusion (human, UniProt Q15303 26-651; Q15303 26-640); assay: phage ELISA, competition with soluble ErbB-4-Ig; against wild-type HRG-β1 177-244 on phage
[2] = molecular target: T2, ErbB-3 receptor-Ig fusion (human, UniProt P21860 20-643; P21860 20-636); assay: phage ELISA, competition with soluble ErbB-3-Ig; against wild-type HRG-β1 177-244 on phage
[3] = molecular target: T2, ErbB-3 receptor-Ig fusion; assay: 125I-HRG-β1 177-244 displacement, ErbB-3-Ig on plate
[4] = molecular target: T1, ErbB-4 receptor-Ig fusion; assay: 125I-HRG-β1 177-244 displacement, ErbB-4-Ig on plate
[5] = molecular target: ErbB-2/3 heterodimers on MCF7 breast cancer carcinoma cells (UniProt P04626); assay: cell-based or functional assay
[6] = molecular target: ErbB-2/3 receptor-Ig fusion (human) (UniProt P04626); assay: 125I-HRG displacement, ErbB-2/3-Ig on plate
[7] = molecular target: T2, ErbB-3 receptor-Ig fusion; assay: phage ELISA, competition with soluble ErbB-3-Ig; against HRG8
Procedure: (§1) Microtiter plates (Nunc Maxisorp™ 96-well plates, Inter Med, Denmark) for phage ELISA were prepared as follows. The wells were precoated overnight with 0.5 μg of rabbit anti-human IgG (Fc gamma fragment-specific) antibodies (Jackson Immunoresearch, West Grove, Pa.) in 100 μL 50 mM NaCO₃ (pH 9.6). The wells were blocked for 30 minutes (min) with 200 μL PBS containing 0.1% bovine serum albumin (BSA) and rinsed with wash buffer (PBS containing 0.05% Tween 20™). The wells were then coated with 0.1 μg ErbB-2/3-Ig in binding buffer (PBS, 0.1% BSA, 0.05% Tween 20™) for 1 h, and washed again.
(§2) Following incubation for 2 h at room temperature, plates were washed extensively and treated with a 1:900 dilution of anti-M13 horseradish peroxidase conjugate (Pharmacia, Piscataway, N.J.) for 20 min. The amount of phage binding was determined by assaying horseradish peroxidase activity using o-phenylenediamine dihydrochloride) substrate solution (Sigma Chemical Company, St. Louis, Mo.).

[8] = molecular target: T1, ErbB-4 receptor-Ig fusion; assay: phage ELISA, competition with soluble ErbB-4-Ig; against HRG8
[9] = molecular target: ErbB-2/3 receptor-Ig fusion (human, UniProt P04626 23-652; P04626 23-645; P21860 20-643; P04626 23-645); assay: phage ELISA, competition with soluble ErbB-2/3-Ig
Procedure: as §1, §2

T1 sequence (Q15303 other isoform, or with tags, fused parts or gaps): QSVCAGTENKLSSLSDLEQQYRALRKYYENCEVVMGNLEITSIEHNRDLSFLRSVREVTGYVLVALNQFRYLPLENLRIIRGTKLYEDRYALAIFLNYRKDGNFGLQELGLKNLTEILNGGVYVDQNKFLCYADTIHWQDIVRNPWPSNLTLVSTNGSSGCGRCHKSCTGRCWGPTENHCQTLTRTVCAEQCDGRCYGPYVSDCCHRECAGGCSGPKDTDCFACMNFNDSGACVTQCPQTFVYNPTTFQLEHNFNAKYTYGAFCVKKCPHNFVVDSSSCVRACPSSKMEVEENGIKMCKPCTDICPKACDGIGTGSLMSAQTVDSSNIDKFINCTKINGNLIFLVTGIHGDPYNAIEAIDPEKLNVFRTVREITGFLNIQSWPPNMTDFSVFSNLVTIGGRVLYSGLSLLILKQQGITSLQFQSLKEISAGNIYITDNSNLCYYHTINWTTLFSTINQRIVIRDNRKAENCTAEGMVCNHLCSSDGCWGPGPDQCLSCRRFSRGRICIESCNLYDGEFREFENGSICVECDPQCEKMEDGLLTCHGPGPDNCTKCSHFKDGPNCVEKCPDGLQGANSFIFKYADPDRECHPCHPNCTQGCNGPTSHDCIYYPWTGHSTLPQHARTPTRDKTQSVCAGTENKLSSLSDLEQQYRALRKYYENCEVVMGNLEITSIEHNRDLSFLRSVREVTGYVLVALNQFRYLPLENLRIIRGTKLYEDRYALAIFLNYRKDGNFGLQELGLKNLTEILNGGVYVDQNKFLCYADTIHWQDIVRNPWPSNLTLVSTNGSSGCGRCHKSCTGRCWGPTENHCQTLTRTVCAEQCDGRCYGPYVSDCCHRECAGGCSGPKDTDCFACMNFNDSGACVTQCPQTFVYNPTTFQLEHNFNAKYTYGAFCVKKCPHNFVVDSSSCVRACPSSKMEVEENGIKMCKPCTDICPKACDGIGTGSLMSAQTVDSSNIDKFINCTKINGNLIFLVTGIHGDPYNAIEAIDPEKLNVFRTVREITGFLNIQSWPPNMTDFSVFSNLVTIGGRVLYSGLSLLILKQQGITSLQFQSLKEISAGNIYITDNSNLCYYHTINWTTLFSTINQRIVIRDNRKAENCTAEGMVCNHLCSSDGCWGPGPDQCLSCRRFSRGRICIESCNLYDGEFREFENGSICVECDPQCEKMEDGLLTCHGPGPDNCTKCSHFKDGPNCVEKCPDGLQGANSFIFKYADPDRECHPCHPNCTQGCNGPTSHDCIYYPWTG

HRG-β1 177-244 H178D L179V displayed on phage (Example 4 clone) (from UniProt Q02297 177-244) (ligand)
EC50 Mut/WT [1]: 2
EC50 Mut/WT [2]: 2.2

HRG-β1 177-244 H178E displayed on phage (Example 4 clone) (from UniProt Q02297 177-244) (ligand)
EC50 Mut/WT [1]: 1.7
EC50 Mut/WT [2]: 9.5

HRG-β1 177-244 H178L displayed on phage (Example 4 clone) (from UniProt Q02297 177-244) (ligand)
EC50 Mut/WT [1]: 1.2
EC50 Mut/WT [2]: 1.4

HRG-β1 177-244 H178L with 228-231 replaced by Met, displayed on phage (Example 4 clone) (from UniProt Q02297 177-227; Q02297 232-244) (ligand)
EC50 Mut/WT [1]: 1.7
EC50 Mut/WT [2]: 6.4

HRG-β1 177-244 H178W with 228-231 replaced by Met, displayed on phage (Example 4 clone) (from UniProt Q02297 177-227; Q02297 232-244) (ligand)
EC50 Mut/WT [1]: 1.7
EC50 Mut/WT [2]: 1.2

HRG-β1 177-244 L179V displayed on phage (Example 4 clone) (from UniProt Q02297 177-244) (ligand)
EC50 Mut/WT [1]: 1.6
EC50 Mut/WT [2]: 1.5

HRG-β1 177-244 R207P displayed on phage (Example 4 clone) (from UniProt Q02297 177-244) (ligand)
EC50 Mut/WT [1]: 1.3
EC50 Mut/WT [2]: 6.1

Trx-HRG-β1 146-244 E195A fusion (from UniProt Q02297 146-244) (ligand)
EC50 [3]: 42 nM
EC50 [4]: 13.2 nM

Trx-HRG-β1 146-244 E215A fusion (from UniProt Q02297 146-244) (ligand)
EC50 [3]: 156 nM
EC50 [4]: 104 nM

Trx-HRG-β1 146-244 F189A fusion (from UniProt Q02297 146-244) (ligand)
EC50 [3]: 975 nM
EC50 [4]: 565 nM

Trx-HRG-β1 146-244 F216A fusion (from UniProt Q02297 146-244) (ligand)
EC50 [3]: 2550 nM
EC50 [4]: 173 nM

Trx-HRG-β1 146-244 F229A fusion (from UniProt Q02297 146-244) (ligand)
EC50 [3]: 177 nM
EC50 [4]: 89.9 nM

Trx-HRG-β1 146-244 G193A fusion (from UniProt Q02297 146-244) (ligand)
EC50 [3]: 26.9 nM
EC50 [4]: 76.3 nM

Trx-HRG-β1 146-244 G194A fusion (from UniProt Q02297 146-244) (ligand)
EC50 [3]: 1210 nM
EC50 [4]: 275 nM

Trx-HRG-β1 146-244 G218A fusion (from UniProt Q02297 146-244) (ligand)
EC50 [3]: 668 nM
EC50 [4]: 608 nM

Trx-HRG-β1 146-244 H178A fusion (from UniProt Q02297 146-244) (ligand)
EC50 [3]: 476 nM
EC50 [4]: 138 nM

Trx-HRG-β1 146-244 K200A fusion (from UniProt Q02297 146-244) (ligand)
EC50 [3]: 45.4 nM
EC50 [4]: 16.9 nM

Trx-HRG-β1 146-244 K211A fusion (from UniProt Q02297 146-244) (ligand)
EC50 [3]: 248 nM
EC50 [4]: 124 nM

Trx-HRG-β1 146-244 L179A fusion (from UniProt Q02297 146-244) (ligand)
EC50 [3]: 394 nM
EC50 [4]: 51.7 nM

Trx-HRG-β1 146-244 N192A fusion (from UniProt Q02297 146-244) (ligand)
EC50 [3]: 1640 nM
EC50 [4]: 696 nM

Trx-HRG-β1 146-244 P205A fusion (from UniProt Q02297 146-244) (ligand)
EC50 [3]: 39.5 nM
EC50 [4]: 34.2 nM

Trx-HRG-β1 146-244 R207A fusion (from UniProt Q02297 146-244) (ligand)
EC50 [3]: 245 nM
EC50 [4]: 24.3 nM

Trx-HRG-β1 146-244 S177A fusion (from UniProt Q02297 146-244) (ligand)
EC50 [3]: 129 nM
EC50 [4]: 54.6 nM

Trx-HRG-β1 146-244 T217A fusion (from UniProt Q02297 146-244) (ligand)
EC50 [3]: 145 nM
EC50 [4]: 32.7 nM

Trx-HRG-β1 146-244 V199A fusion (from UniProt Q02297 146-244) (ligand)
EC50 [4]: 246 nM

Trx-HRG-β1 146-244 Y224A fusion (from UniProt Q02297 146-244) (ligand)
EC50 [3]: 339 nM
EC50 [4]: 24.5 nM

B1: soluble wild-type HRG-β1 EGF (HRG8) (ligand, human, UniProt Q02297-6 177-228, looked up)
chain: SHLVKCAEKEKTFCVNGGECFMVKDLSNPSRYLCKCPNEFTGDRCQNYVMAS
modifications: ends and bridges not checked; cysteine pairing not given here
KIRA EC50 (ErbB-2 tyrosine phosphorylation on MCF7 cells) [5]: 0.212 nM
EC50 [6]: 0.033 nM

B2: HRG-β1 EGF variant A3 displayed on phage (ligand, human, not shown: large carriers)
chain: WELVPCAEKEKTFCVNGGECFMVKDLSNPSRYLCKCPNEFTGDRCQNYVMASGGGSGGGSGGGS
notes: monovalent phage display, pHRG8-g3 background
EC50 (wt)/EC50 (mut) [7]: 0.96 ratio
EC50 (wt)/EC50 (mut) [8]: 1.1 ratio

B3: HRG-β1 EGF variant B3 displayed on phage (ligand, human, not shown: large carriers)
chain: SHLVKCGEEREGFCVNGGECFMVKDLSNPSRYLCKCPNEFTGDRCQNYVMASGGGSGGGSGGGS
notes: as for B2
EC50 (wt)/EC50 (mut) [7]: 4.7 ratio
EC50 (wt)/EC50 (mut) [8]: 1.7 ratio

B4: HRG-β1 EGF variant D4 displayed on phage (ligand, human, not shown: large carriers)
chain: SHLVKCAEKEKTFCVNGGECYRVKTLSNPSRYLCKCPNEFTGDRCQNYVMASGGGSGGGSGGGS
notes: as for B2
EC50 (wt)/EC50 (mut) [7]: 2.9 ratio
EC50 (wt)/EC50 (mut) [8]: 5 ratio

B5: HRG-β1 EGF variant E2 displayed on phage (ligand, human, not shown: large carriers)
chain: SHLVKCAEKEKTFCVNGGECFMVKDYGYLMCKCPNEFTGDRCQNYVMASGGGSGGGSGGGS
notes: monovalent phage display
EC50 (wt)/EC50 (mut) [7]: 28 ratio
EC50 (wt)/EC50 (mut) [8]: 7.6 ratio

B6: HRG-β1 EGF variant E8 displayed on phage (ligand, not shown: large carriers; small tags and cut ends)
chain: SHLVKCAEKEKTFCVNGGECFMVKDTKYRGCKCPNEFTGDRCQNYVMAS-{(GGGS)3-M13 pIII C‑terminal fragment from residue 323}
modifications: ends and bridges not checked
notes: monovalent phage display; library E carries the 202-204 deletion
EC50 (wt)/EC50 (mut) [7]: 17 ratio

B7: HRG-β1 EGF variant G1 displayed on phage (ligand, not shown: large carriers; small tags and cut ends)
chain: SHLVKCAEKEKTFCVNGGECFMVKDLSNPSRYLCRCSLEFTGDRCQNYVMAS-{(GGGS)3-M13 pIII C‑terminal fragment from residue 323}
modifications: ends and bridges not checked
notes: as for B2
EC50 (wt)/EC50 (mut) [7]: 1.2 ratio
EC50 (wt)/EC50 (mut) [8]: 1.6 ratio

B8: HRG-β1 EGF variant I1 displayed on phage (ligand, human, not shown: large carriers)
chain: SHLVKCAEKEKTFCVNGGECFMVKDLSNPSRYLCKCPNEFTGDRCQWYVIASGGGSGGGSGGGS
notes: as for B2
EC50 (wt)/EC50 (mut) [7]: 13 ratio

B9: HRG-β1 EGF variant I2 displayed on phage (ligand, human, not shown: large carriers)
chain: SHLVKCAEKEKTFCVNGGECFMVKDLSNPSRYLCKCPNEFTGDRCQHYVIASGGGSGGGSGGGS
notes: as for B2
EC50 (wt)/EC50 (mut) [7]: 20 ratio
EC50 (wt)/EC50 (mut) [8]: 10 ratio

B10: HRG90 (HRG-β1 EGF Met226Ile) displayed on phage (ligand, human, not shown: large carriers)
chain: SHLVKCAEKEKTFCVNGGECFMVKDLSNPSRYLCKCPNEFTGDRCQNYVIASGGGSGGGSGGGS
notes: monovalent phage display
EC50 (wt)/EC50 (mut) [7]: 6.3 ratio

B11: HRG37 combination variant displayed on phage (ligand, not shown: large carriers; small tags and cut ends)
chain: WELVPCGWDREGFCVNGGECFMVKDLSNPSRYLCKCPNEFTGDRCQNYVIAS-{(GGGS)3-M13 pIII C‑terminal fragment from residue 323}
modifications: ends and bridges not checked
notes: as for B2
EC50 (wt)/EC50 (mut) [7]: 13 ratio

B12: HRG73 combination variant displayed on phage (ligand, human, not shown: large carriers)
chain: SHLVKCGEEREGFCVNGGECYRVKTYGYLMCKCPNEFTGDRCQHYVIASGGGSGGGSGGGS
notes: monovalent phage display; also called B3+D4+E2+I2
EC50 (wt)/EC50 (mut) [7]: 56 ratio
EC50 (wt)/EC50 (mut) [8]: 16 ratio

B13: HRG4 (HRG-β1 147-227 fused to pIII 247, displayed on phage) (ligand, human, UniProt Q02297-6 147-227, looked up, not shown: large carriers)
chain: YVSSESPIRISVSTEGANTSSSTSTSTTGTSHLVKCAEKEKTFCVNGGECFMVKDLSNPSRYLCKCPNEFTGDRCQNYVMA
notes: range 147-227; monovalent phage display; also called pHRG4-g3
EC50 [9]: 38 nM

B14: HRG5 (HRG-β1 147-244 fused to pIII 247, displayed on phage) (ligand, human, UniProt Q02297-6 147-244, looked up, not shown: large carriers)
chain: YVSSESPIRISVSTEGANTSSSTSTSTTGTSHLVKCAEKEKTFCVNGGECFMVKDLSNPSRYLCKCPNEFTGDRCQNYVMASFYKHLGIEFMEAEELY
notes: monovalent phage display; also called pHRG5-g3
EC50 [9]: 4.7 nM

B15: HRG6 (HRG-β1 177-227 fused to pIII 247, displayed on phage) (ligand, human, UniProt Q02297-6 177-227, looked up, not shown: large carriers)
chain: SHLVKCAEKEKTFCVNGGECFMVKDLSNPSRYLCKCPNEFTGDRCQNYVMA
modifications: not fully specified (C-terminus); ends and bridges not checked
notes: monovalent phage display; Ala227 restored from pHRG1-g3; also called pHRG6-g3
EC50 [9]: 40 nM

B16: HRG11 (HRG-β1 177-230 fused via GGGSGGG to pIII 247, displayed on phage) (ligand, human, not shown: large carriers)
chain: SHLVKCAEKEKTFCVNGGECFMVKDLSNPSRYLCKCPNEFTGDRCQNYVMASFYGGGSGGG
notes: monovalent phage display; also called pHRG11-g3
EC50 [9]: 19 nM
